# Measured values published in patent US7217694B2, “Inhibitors of IAPP fibril formation and uses thereof” (The Governing Counsel of the University of Toronto, priority 2000, dated 2007).
# “Also recorded” adds a separate entry of the source. No end group written: not given here.
# Tests used:
# RIN-1056A cells = assay: IAPP toxicity assay (alamar Blue); type: cell-based
# Procedure: RIN-1056A cells were plated into 96 well plates at a density of 2×10^4 cells/well in Dulbecco's Modified Eagle Medium (DMEM) (Gibco-BRL) supplemented with 5% Fetal calf serum (Gibco-BRL), 100 U/ml penicillin (Gibco-BRL), and 100 U/ml streptomycin (Gibco-BRL). After an initial 24 h of culture, cells received fresh medium containing 10 μM hIAPP or rat IAPP alone, or in combination with 200 μM SNNFGA (SEQ ID NO. 11). Cells in control wells received fresh medium only. Cells were incubated with peptide at 37° C., 5% CO2, for 24 hours, after which alamar Blue ( 1/10th volume) was added to each well. Cells were incubated in the presence of alamar Blue (MEDICORP, Montreal) for a period of 8 hours, and data was collected at 2 hour intervals. The fluorescence of the samples was measured using a SpectraMAX Gemini XS Microplate Spectrofluorometer (Molecular Devices) with an excitation wavelength of […] and an emission wavelength of 590 nm. Data were collected using the SoftMax Pro 3.1 software for MacIntosh.
# The toxicity of hIAPP fibrils on pancreatic β cell lines has been well documented. […] cells were incubated for 24 hours in the presence of 10 μM hIAPP alone or in the presence of the peptide SNNFGA (SEQ ID NO. 11). An alamar Blue assay was used to quantitatively measure the proliferation of the cells, and compare the cytotoxic effects of various additives to the cultures.
# hIAPP 1–37 [1] = biological target: T1, hIAPP 1–37 (Homo sapiens, UniProt P10997); assay: Sedimentation assay (tyrosine scan) of soluble versus insoluble hIAPP; type: biochemical; settings: hIAPP 11 μM with 10 fold excess (110 μM) peptide
# T1 construct: Synthetic human IAPP (1–37) was purchased from BACHEM; purchased BACHEM (Torrence, Calif.); host or cells: chemical synthesis
# T1 sequence (P10997 34-70): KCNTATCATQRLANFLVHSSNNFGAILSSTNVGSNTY
# Procedure: Aliquots of lyophilized hIAPP 1–37 were dissolved in 20 mM acetate buffer (pH 6.5) to 11 μM and incubated in a total volume of 500 μl at room temperature. Tyrosine emission spectra were collected (emission wavelength 275 nm) on a Beckman DU530 spectrophotometer for each sample at time 0. Following a 24 hour incubation at room temperature, the soluble and aggregated peptides in each sample were separated by centrifugation at 16,000 g for 20 minutes, and the emission spectra were measured on the soluble fractions. The samples were then vortexed to resuspend the entire contents of each tube, and were incubated for an additional 24 hours. This process was repeated for a total of 72 hours of incubation. For co-incubation experiments, hIAPP was incubated with a 10 fold excess concentration (110 μM) of the inhibitory peptides SNNFGA (SEQ ID NO. 11), and GAILSS (SEQ ID NO. 14).
# Sedimentation assays were performed to confirm the results from CD and electron microscopic analysis (FIGS. 7A and 7B) on the ability of peptides SNNFGA (SEQ ID NO. 11) and GAILSS (SEQ ID NO. 14) to inhibit IAPP fibril formation. hIAPP (11 μM) was incubated for a period of 72 hours in 20 mM acetate buffer alone, or with a 10 fold excess (110 μM) of the peptides.
# A tyrosine scan was used to determine the amount of soluble hIAPP remaining in solution after a 72-hour incubation. […] Following a 24-hour incubation, the amount of soluble hIAPP had reduced to 8%. However, when hIAPP was incubated in the presence of the peptide SNNFGA (SEQ ID NO. 11), the amount of IAPP remaining in solution was approximately […], and in the presence of peptide GAILSS (SEQ ID NO. 14), more than 80% of the hIAPP remained in solution. By 48 hours, the hIAPP incubated alone was no longer soluble and was not detectable using a tyrosine scan. However, approximately 25% of the hIAPP was still measured when co-incubated with either peptide. Similarly, after 72 hours approximately 20% of the hIAPP was still soluble in the sample co-incubated with peptide SNNFGA (SEQ ID NO. 11) or GAILSS (SEQ ID NO. 14).
# hIAPP 1–37 [2] = biological target: T1, hIAPP 1–37; assay: Circular dichroism (CD) of IAPP conformational change, random coil to β-sheet; type: biochemical
# From the text: (§1) FIG. 1 illustrates the sequence of the amyloid-β (Aβ) peptide and its proposed structural domains. A peptide-based approach similar to that used for Aβ (Tjernberg, et al, J Biol Chem 272:12601–12605, 1997) has been used for targeting two key domains in IAPP initially ranging from the 8–20 and 20–29 sequences as shown in FIG. 2. These peptides, as has been shown for Aβ peptides, are able to bind to the full-length IAPP peptide and alter fibrillogenesis. The peptides disrupt fibrillogenesis by disrupting the folding into the amyloidogenic β-sheet conformation, disrupting protofilament interactions, and/or interfering with side chain interactions within the folded IAPP, which are necessary for aggregation and fibril formation. The peptides that have been examined (shown in FIG. 2) were small, synthetic hexapeptides that correspond to the principal sequence domains of IAPP. […] The in vitro assays included: Circular Dichroism (CD), to look at changes in folding of the amyloidogenic β-sheet; negative stain electron microscopy (EM) to examine changes in fibril morphology and relative density; and ThT fluorescence assay which provides a quantitative assessment of fibril formation.
# Synthetic human IAPP (1–37) was purchased from BACHEM (Torrence, Calif.), synthetic peptides spanning the region from IAPP 8 to 20 and 19–31 (FIG. 3) were synthesized by the Peptide Synthesis Laboratory at the University of Toronto using standard FMOC (Fluoroenylmethoxycarbonyl) based solid phase peptide synthesis methodology. The peptides were purified by reverse phase HPLC using water/acetonitrile mixtures buffered with 0. 1% trifluoroacetic acid, on a POROS 20R2 column. The synthetic peptides were solubilized in […] (1 mg/ml), filtered (0.2 μm), aliquotted and lyophilized (Higham, C E., et al., FEBS Lett. 470: 55–60, 2000). Aliquots were reconstituted as required in 20 mM sodium acetate buffer pH 6.5.
# CD was used to measure the peptide conformational changes associated with fibril formation. CD experiments were carried out at room temperature, and spectra (average of 5 scans) were collected using a Jasco J720 spectropolarimeter and quartz cuvettes with a path length of 1 mm. […]
# hIAPP 1–37 [3] = biological target: T1, hIAPP 1–37; assay: Negative stain electron microscopy of IAPP fibril morphology and density; type: biochemical
# From the text: as §1
# TEM was used for structural analysis of in vitro assembled fibrils. Aliquots (4 μl) were applied to pioloform and carbon coated grids. The samples were incubated on the grids for 3 minutes at room temperature, excess material blotted off and stained with 1% phosphotungstic acid (PTA). Excess PTA was blotted off and the sample was left to air dry. All samples were examined using a Hitachi 7000 electron microscope with an accelerating voltage of 75 kV.
# In preliminary work the series of peptides were synthesized from the 20–29 domain and examined, via CD, EM and ThT fluorescence, at two molar ratios (1:10 and 1:20) in comparison to the full-length IAPP residues 1–37. The following data (FIGS. 5A to 5D, 6A to 6C and 7A to 7B) were obtained.
# [4] = 24-hour incubation, normalized to hIAPP alone at time 0
compound,measurement,setting,value
"CC[C@H](C)[C@H](NC(=O)[C@H](C)NC(=O)CNC(=O)[C@H](Cc1ccccc1)NC(=O)[C@H](CC(N)=O)NC(=O)[C@H](CC(N)=O)NC(=O)[C@H](CO)NC(=O)[C@H](CO)NC(=O)[C@H](Cc1c[nH]cn1)NC(=O)[C@@H](NC(=O)[C@H](CC(C)C)NC(=O)[C@H](Cc1ccccc1)NC(=O)[C@H](CC(N)=O)NC(=O)[C@H](C)NC(=O)[C@H](CC(C)C)NC(=O)[C@H](CCCNC(=N)N)NC(=O)[C@H](CCC(N)=O)NC(=O)[C@@H](NC(=O)[C@H](C)NC(=O)[C@@H]1CSSC[C@H](NC(=O)[C@@H](N)CCCCN)C(=O)N[C@@H](CC(N)=O)C(=O)N[C@@H]([C@@H](C)O)C(=O)N[C@@H](C)C(=O)N[C@@H]([C@@H](C)O)C(=O)N1)[C@@H](C)O)C(C)C)C(=O)N[C@@H](CC(C)C)C(=O)N[C@@H](CO)C(=O)N[C@@H](CO)C(=O)N[C@H](C(=O)N[C@@H](CC(N)=O)C(=O)N[C@H](C(=O)NCC(=O)N[C@@H](CO)C(=O)N[C@@H](CC(N)=O)C(=O)N[C@H](C(=O)N[C@@H](Cc1ccc(O)cc1)C(N)=O)[C@@H](C)O)C(C)C)[C@@H](C)O [hIAPP, reference compound]",decrease in cell viability compared to cells in culture medium alone,"RIN-1056A cells; 10 μM hIAPP, 24 hours",35–40%
GAILSS,amount of hIAPP remaining in solution,hIAPP 1–37 [1]; [4],more than 80%
same,amount of hIAPP remaining in solution,hIAPP 1–37 [1]; 48 hours,approximately 25%
same,amount of hIAPP remaining in solution,hIAPP 1–37 [1]; 72 hours,approximately 20%
same,inhibition of IAPP β-sheet transition and aggregation (CD),hIAPP 1–37 [2]; 1:10 or 1:20 molar ratio (10- or 20-fold molar excess),very strong inhibitors of IAPP β-sheet transition; also recorded: majority of IAPP in these samples was maintained in a random conformation
same,inhibition of IAPP β-sheet conformational change at reduced concentrations (CD),hIAPP 1–37 [2]; 5-fold molar excess (1:5) or 1:1 molar ratio,very strong inhibitor; also recorded: capable of maintaining the majority of hIAPP in a random coil conformation
same,effect on IAPP β-sheet formation / precipitation (CD),"hIAPP 1–37 [2]; 48-hour incubation, pH 6.5",able to prevent the attenuation of signal due to precipitation of IAPP
same,"inhibition of IAPP β-sheet formation / fibril formation, overall statement (CD)",hIAPP 1–37 [2]; molar ratio not stated,greatest inhibition of IAPP fibril formation
same,effect on initial random structure of IAPP (CD),"hIAPP 1–37 [2]; time 0, 1:10 or 1:20 molar ratio",had no effect on the initial random structure of IAPP
same,prevention of IAPP fibril formation (EM),hIAPP 1–37 [3]; 10- or 20-fold molar excess,did not completely prevent fibril formation
same,effect on IAPP fibril morphology / density / aggregation (EM),hIAPP 1–37 [3]; molar ratio not stated,caused a disruption in IAPP fibrillar structure; also recorded: fibrils formed were less numerous; also recorded: absence of fibrillar aggregates which could act as seeds
same,inhibition of normal IAPP fibrillar aggregation (EM),hIAPP 1–37 [3]; reduced inhibitor concentrations,effective inhibitors of normal IAPP fibrillar aggregation
SNNFGA [SNNFGA],direct toxicity of the peptide to pancreatic β cells in culture,RIN-1056A cells,not directly toxic
same,amount of hIAPP remaining in solution,hIAPP 1–37 [1]; [4],approximately 15%
same,amount of hIAPP remaining in solution,hIAPP 1–37 [1]; 48 hours,approximately 25%
same,amount of hIAPP remaining in solution,hIAPP 1–37 [1]; 72 hours,approximately 20%
